# According to patent US20120201751A1:
# B1: (hu)ARH460-16-2 variant HV1/KV1 (antibody, V domains shown)
# VH: EVQLVESGGGLVQPGGSLRLSCAASGFDFSRYWMSWVRQAPGKGLVWVGEVNPDSTSINYTPSLKDRFTISRDNAKNTLYLQMNSLRAEDTAVYYCTRPNYYGSRYHYYAMDYWGQGTLVTVSS
# VL: DIQMTQSPSSLSASVGDRVTITCRASQDINNYLNWYQQKPGKAPKLLIYYTSRLHSGVPSRFSGSGSGTDFTFTISSLQPEDIATYYCQQGSTLPFTFGQGTKLEIK
# How the values were obtained:
# [1] = molecular target: Recombinant human CD44/Fc (R&D Systems, Minneapolis) (human) (UniProt P16070); assay: SPR (Biacore T100), recombinant human CD44/Fc amine-coupled to a CM5 chip, 1:1 interaction model; column head Kd (1/s)
# [2] = molecular target: Recombinant human CD44/Fc (R&D Systems, Minneapolis) (human) (UniProt P16070); assay: SPR (Biacore T100), rhCD44/Fc amine-coupled to CM5, antibody injected 0.67-667 nM, 1:1 model
# [3] = molecular target: Recombinant human CD44/Fc (R&D Systems, Minneapolis) (human) (UniProt P16070); assay: SPR (Biacore T100), recombinant human CD44/Fc amine-coupled to a CM5 chip, 1:1 interaction model; column head Ka (1/Ms)
binder,measurement,setting,value
B1,koff,[1],0.000225 s⁻¹
same,Kd,[2],6.32 nM
same,kon,[3],35400 M⁻¹ s⁻¹
